Data from patent publication US20240182592A1 (CHIA TAI TIANQING PHARMACEUTICAL GROUP, published 2024).

T1: human BCMA-His (ACRO, product catalog No. BCA-H522y) (human, UniProt Q02223 1-54, biotin-conjugated in the ELISAs of Examples 5 and 6.1 (site not stated))
T1 construct: Bought protein; also called BCMA-His protein; biotin-conjugated recombinant BCMA-His protein; not shown: His tag
T1 sequence (looked up): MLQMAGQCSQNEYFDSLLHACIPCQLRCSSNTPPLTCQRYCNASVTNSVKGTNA

T2: human TACI protein (human, UniProt O14836 2-166, limits assumed)
T2 sequence (looked up): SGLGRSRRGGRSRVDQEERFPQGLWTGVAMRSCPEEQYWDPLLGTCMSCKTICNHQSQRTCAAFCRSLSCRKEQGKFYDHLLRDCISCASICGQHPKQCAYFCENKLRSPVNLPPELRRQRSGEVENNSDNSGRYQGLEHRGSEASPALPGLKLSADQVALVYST

T3: human BCMA on cells (human, UniProt Q02223 1-184)
T3 construct: whole, on cells; also called CHO-hBCMA cells; U266 cells
T3 sequence (looked up): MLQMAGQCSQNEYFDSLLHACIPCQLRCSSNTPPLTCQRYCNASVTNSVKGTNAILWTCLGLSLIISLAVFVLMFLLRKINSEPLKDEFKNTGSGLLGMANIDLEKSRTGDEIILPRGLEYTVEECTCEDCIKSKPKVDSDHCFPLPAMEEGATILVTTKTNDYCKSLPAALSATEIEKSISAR

T4: human BCMA protein (human, UniProt Q02223 1-54, limits assumed)
T4 construct: also called hBCMA; Antigen BCMA
T4 sequence (looked up): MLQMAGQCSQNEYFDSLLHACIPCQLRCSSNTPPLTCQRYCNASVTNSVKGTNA

B1: 1A10-Fc (antibody, human IgG1, V domains shown)
VH: QVQLVESGGGSVQAGGSLRLSCAASGYSSNVACMAWYRQAPGKEREWVATIVADFGTTNYAASVKGRFTISQDNAKNTVYLQMNSLKPEDSAMYYCAATQRGGIDWCDEINYWGQGTLVTVSS
notes: also called anti-human BCMA VHH-Fc chimeric antibody 1A10-Fc
B2: 1A1-Fc (antibody, human IgG1, V domains shown)
VH: QVQLVESGGGSVQAGGSLRLSCTASGYTFRGWNKHWYRQAPGKERELVSSIFRDGKTAYTDSVKGRFTISQDNADATVYLQMNSLKPEDTAMYYCKYDLPGSGLPAFWGQGTLVTVSS
notes: Camel VHH fused to human IgG1 Fc; also called anti-human BCMA VHH-Fc chimeric antibody 1A1-Fc
B3: 1B10-Fc (antibody, human IgG1, V domains shown)
VH: EVQLVESGGGSVQAGGSLRLSCTASGYTFRGWNKHWYRQAPGKERELVSSIFRDGKTAYTDSVKGRFTISQDSADATVYLQMNSLKPEDTAMYYCKYDLPGSGLPEFWGQGTLVTVSS
notes: Camel VHH fused to human IgG1 Fc; also called anti-human BCMA VHH-Fc chimeric antibody 1B10-Fc
B4: 1A11-Fc (antibody, human IgG1, V domains shown)
VH: QVQLVESGGGSVQAGGSLRLSCAASGVTFNSACMGWFRQAPGKEREGVARIETGYGGTVYADSVKGRFTISRDNAKNTVYLQMNSLKPEDTAMYYCAAKRSWCTPTWWHELDYNYWGQGTQVTVSS
notes: also called anti-human BCMA VHH-Fc chimeric antibody 1A11-Fc

Assays:
[1] = biological target: T1, human BCMA-His (ACRO, product catalog …); assay: competition ELISA (chessboard), biotin-BCMA-His; competitor: 1A1-Fc
Method: (§1) The anti-human BCMA VHH-Fc chimeric antibodies were diluted to 2 μg/mL and allowed to coat a high-adsorption microplate. The plate was washed and then blocked. […] According to a chessboard arrangement, the incubated mixtures of antigen and antibody or the biotin-conjugated BCMA-His protein alone (control group) were added in sequence to the well plate at 100 μL/well. The plate was incubated at 37° C. for 1 h. The plate was washed to remove unbound biotin-conjugated recombinant BCMA-His protein. HRP-conjugated streptavidin (eBioscience, product catalog No. 18-4100-51) was added, and the plate was washed 5 times and then subjected to color development. The light absorption signal values at the wavelength of 450 nm and the reference wavelength of 650 nm were measured. The blocking rate of one antibody for the binding signal of another antibody to BCMA-Bio was calculated according to the formula blocking rate=(signal value of control group−signal value of sample group)/signal value of control group×100%. Positive control groups in which antibodies competed with themselves are shown on the diagonal line “\” of the chessboard (indicated in gray).

[2] = biological target: T5, cynomolgus monkey BCMA on transiently transfected HEK293T cells (cynomolgus monkey, UniProt Q02223 1-184 (human entry)); assay: flow cytometry, HEK293T cells transiently transfected with cynomolgus monkey BCMA
T5 construct: it may be a nucleotide entry; also called HEK293T-CynoBCMA
T5 sequence (Q02223 other isoform, or with tags, fused parts or gaps): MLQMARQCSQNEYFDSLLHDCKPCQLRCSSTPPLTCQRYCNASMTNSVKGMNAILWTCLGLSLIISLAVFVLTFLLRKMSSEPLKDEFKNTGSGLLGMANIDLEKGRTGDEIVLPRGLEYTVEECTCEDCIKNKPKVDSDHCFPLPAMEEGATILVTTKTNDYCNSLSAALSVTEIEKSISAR
Description: The cells were washed and then tested using a flow cytometer (Thermo Fisher Scientific Inc., Attune NXT).

[3] = biological target: human BAFF-R protein (human, UniProt Q96RJ3 7-71, limits assumed); assay: SPR (Biacore T200), antibody captured by anti-hIgG (Fc)
human BAFF-R protein, sequence (Q96RJ3 7-71 limits assumed): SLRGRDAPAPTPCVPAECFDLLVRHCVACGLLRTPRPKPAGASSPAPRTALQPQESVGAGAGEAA
Method: (§2) The anti-human BCMA VHH-Fc chimeric antibodies were tested for specificity using a biomolecular interaction analysis system (GE, Biacore T200). An anti-hIgG (Fc) antibody (GE, product catalog No. BR-1008-39) was amino-coupled to a CM5 sensor chip. The anti-human BCMA VHH-Fc chimeric antibodies were diluted to 2 μg/mL with a running buffer (137 mM NaCl, 2.7 mM KCl, 10 mM Na₂HPO₄.12H₂O, 1.8 mM KH₂PO₄, 0.05% surfactant P-20 (w/v), pH 7.4), and capture was allowed for 90 s by passing the dilutions through experimental channels at a flow rate of 30 μL/min. Human TACI or BAFF-R protein was diluted to 100 nM with the running buffer, and binding was allowed by passing the dilution at a flow rate of 50 μL/min. The binding signal curve was observed.

[4] = biological target: T2, human TACI protein; assay: as above
Method: as §2

[5] = biological target: T3, human BCMA on cells; assay: flow cytometry, CHO-hBCMA cells
Description: (§3) The binding of the anti-human BCMA VHH-Fc chimeric antibodies to target cells with different BCMA expression levels was detected by flow cytometry. The CHO-hBCMA cells (iCarTab Biotechnology (Suzhou) Co. Ltd., product catalog No. AKD001A) were a stably transfected cell line highly expressing BCMA. The U266 cells (Cell Culture Center, Institute of Basic Medical Sciences, Chinese Academy of Medical Sciences, product catalog No. 3111C0001CCC000684) were a natural human myeloma cell line expressing BCMA at medium levels. The PRMI8226 cells (Cell Culture Center, Institute of Basic Medical Sciences, Chinese Academy of Medical Sciences, product catalog No. 3111C0001CCC000083) were a natural human myeloma cell line expressing BCMA at low levels. The HUVEC cells (ScienCell Research Laboratories, product catalog No. […] 8000) were a human umbilical vein endothelial cell line not expressing BCMA. […] A PE-labeled anti-human IgG Fc antibody (Jackson Immuno Rescarch, product catalog No. 109-116-170) was added, and the mixture was incubated on ice for 0.5 h. The cells were washed and then tested using a flow cytometer (Thermo Fisher Scientific Inc., Attune NXT).

[6] = biological target: T1, human BCMA-His (ACRO, product catalog …); assay: competition ELISA (chessboard), biotin-BCMA-His; competitor: 1B10-Fc
Method: as §1

[7] = biological target: T1, human BCMA-His (ACRO, product catalog …); assay: competitive ELISA: antibody blocks binding of biotin-BCMA-His to coated APRIL
Method: The plate was incubated at 37° C. for 1 h and then washed to remove unbound biotin-conjugated recombinant BCMA-His protein. HRP-conjugated streptavidin (eBioscience, product catalog No. 18-4100-51) was added, and the plate was washed 5 times and then subjected to color development. The light absorption signal values at the wavelength of 450 nm and the reference wavelength of 650 nm were measured.

[8] = biological target: T1, human BCMA-His (ACRO, product catalog …); assay: competition ELISA (chessboard), biotin-BCMA-His; competitor: 1A11-Fc
Method: as §1

[9] = biological target: T4, human BCMA protein; assay: SPR (Biacore T200), antibody captured by anti-hIgG, human BCMA as analyte, 1:1 model
Method: The affinity of the test antibody for human BCMA protein was determined by Biacore T200 (GE) as follows:
The response signals were detected in real time using Biacore software, and association and dissociation curves were obtained. The buffer used in the experiment was Biacore universal buffer (137 mM NaCl, 2.7 mM KCl, 10 mM Na₂HPO₄.12H₂O, 1.8 mM KH₂PO₄, 0.05% surfactant P-20 (w/v), pH 7.4). […] The flow rate in the flow cell was at 50 μL/min, the association was performed for 240 s, the dissociation was performed for 1400 s, the regeneration was performed using 3 M MgCl₂ (GE) for 60 s, and the baseline was stable. Results were obtained by calculation according to the affinity and kinetics 1:1 binding mode in biacore evaluation software.

[10] = biological target: T3, human BCMA on cells; assay: flow cytometry, U266 cells
Description: as §3

[11] = biological target: cynomolgus monkey BCMA protein (cynomolgus monkey, UniProt A0A2K5UD97 1-53); assay: SPR (Biacore T200)
cynomolgus monkey BCMA protein, sequence (A0A2K5UD97 entry or part of it limits assumed): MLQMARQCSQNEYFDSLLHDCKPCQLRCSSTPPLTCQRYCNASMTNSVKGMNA

[12] = biological target: T1, human BCMA-His (ACRO, product catalog …); assay: competition ELISA (chessboard), biotin-BCMA-His; competitor: 1A10-Fc
Method: as §1

Binder | blocking rate [1] [%] | EC50 [2] [nM] | binding result [3] | binding result [4] | EC50 [5] [nM] | blocking rate [6] [%] | IC50 [7] [nM] | blocking rate [8] [%] | Kd [9] [nM] | EC50 [10] [nM] | binding result [11] | blocking rate [12] [%]
B1 | 36.9 | 2.02 | no binding (tested: 100 nM) | no binding (tested: 100 nM) | 4.28 | 46.4 | 0.41 | 32.6 | 0.94 | 4.64 | – | –
B2 | – | – | no binding (tested: 100 nM) | no binding (tested: 100 nM) | 3.04 | 101 | 0.34 | 99.4 | – | 2.77 | no binding | 7.6
B3 | 100 | – | no binding (tested: 100 nM) | no binding (tested: 100 nM) | 2.51 | – | 0.26 | 99.5 | – | 1.72 | no binding | 26.7
B4 | 101 | 10.4 | no binding (tested: 100 nM) | no binding (tested: 100 nM) | 2.08 | 99.4 | 0.76 | – | 3.96 | 1.26 | – | 21.6
